{"source": "patent US20150299272A1", "about": "(UNIVERSITY OF NEWCASTLE UPON TYNE, published 2015)", "binders": {"B1": {"name": "Caf1 WT (naturally occurring Caf1 polypeptide monomer from Yersinia pestis; fraction 1 antigen polymer) (other)", "chain": "ADLTASTTATATLVEPARITLTYKEGAPITIMDNGNIDTELLVGTLTLGGYKTGTTSTSVNFTDAAGDPMYLTFTSQDGNNHQFTTKVIGKDSRDFDISPKVNGENLVGDDVVLATGSQDFFVRSIGSKGGKLAAGKYTDAVTVTVSNQ"}}, "target": "Caf1-FLAG epitope NT (Yersinia pestis, UniProt P26948 1-170)", "experiment": "co-expression in E. coli, western blot of partly heat-dissociated polymer"}
{"binder": "B1", "values": [{"measurement": "binding result", "value": "binds"}]}
